{"source": "paper PMC9943670", "about": "“The homeodomain of Oct4 is a dimeric binder of methylated CpG elements”", "key": {"Oct4 POU [1]": {"target": "T1, Oct4 POU (mouse, UniProt P20263)", "T1 sequence (P20263 other isoform, or with tags, fused parts or gaps)": "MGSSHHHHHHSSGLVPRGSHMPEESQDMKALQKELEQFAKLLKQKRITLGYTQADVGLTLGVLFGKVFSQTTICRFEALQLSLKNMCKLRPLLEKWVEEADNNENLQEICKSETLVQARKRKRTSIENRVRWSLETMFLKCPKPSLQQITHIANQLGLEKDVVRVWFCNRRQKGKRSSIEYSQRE", "experiment": "EMSA (single-tube dual color); FAM-CpGpal with Cy5-MORE; dimerizes more effectively on CpGpal than Brn2 does; EMSA buffer composition not given; 1 h at RT; gels in 1x TG, 200 V, 4 C; probes annealed in 20 mM Tris-HCl pH 8.0, 50 mM MgCl2, 50 mM KCl; protein stock 10 mM HEPES pH 7.0, 100 mM NaCl, 10% glycerol, 0.5 mM TCEP", "conditions": "protein: recombinant; Methods: TEV-cleaved tag; label: 5' Cy5 or FAM on forward strand; blunt"}, "Brn2 POUHD [2]": {"target": "T2, Brn2 POUHD (mouse, UniProt P31360)", "T2 sequence": "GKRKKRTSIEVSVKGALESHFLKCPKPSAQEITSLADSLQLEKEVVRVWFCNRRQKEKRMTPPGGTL", "experiment": "EMSA; 50 nM DNA; dimer with strongly reduced cooperativity; EMSA buffer composition not given; 1 h at RT; gels in 1x TG, 200 V, 4 C; probes annealed in 20 mM Tris-HCl pH 8.0, 50 mM MgCl2, 50 mM KCl; protein stock 10 mM HEPES pH 7.0, 100 mM NaCl, 10% glycerol, 0.5 mM TCEP", "conditions": "protein: recombinant, tags: tag cleaved by TEV (leaves G), blunt"}, "Oct4 POUHD [3]": {"target": "T3, Oct4 POUHD (mouse, UniProt P20263)", "T3 sequence (P20263 other isoform, or with tags, fused parts or gaps)": "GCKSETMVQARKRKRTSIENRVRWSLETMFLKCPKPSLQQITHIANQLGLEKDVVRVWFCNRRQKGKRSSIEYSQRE", "experiment": "EMSA; 50 nM DNA; homodimer more efficient than full POU; EMSA buffer composition not given; 1 h at RT; gels in 1x TG, 200 V, 4 C; probes annealed in 20 mM Tris-HCl pH 8.0, 50 mM MgCl2, 50 mM KCl; protein stock 10 mM HEPES pH 7.0, 100 mM NaCl, 10% glycerol, 0.5 mM TCEP", "conditions": "protein: recombinant; tags: tag cleaved by TEV (leaves G); chain copies: 2; label: 5' Cy5 or FAM on forward strand; blunt"}, "Brn2 POU [4]": {"target": "T4, Brn2 POU (mouse, UniProt P31360)", "T4 sequence": "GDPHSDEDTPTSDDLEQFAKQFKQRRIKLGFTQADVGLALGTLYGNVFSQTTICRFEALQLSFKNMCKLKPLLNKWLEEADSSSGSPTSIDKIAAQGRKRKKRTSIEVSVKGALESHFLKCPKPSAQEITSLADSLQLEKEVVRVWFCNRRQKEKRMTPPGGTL", "experiment": "EMSA (single-tube dual color); Cy5-MORE with FAM-CpGpal; preferred, dimer; EMSA buffer composition not given; 1 h at RT; gels in 1x TG, 200 V, 4 C; probes annealed in 20 mM Tris-HCl pH 8.0, 50 mM MgCl2, 50 mM KCl; protein stock 10 mM HEPES pH 7.0, 100 mM NaCl, 10% glycerol, 0.5 mM TCEP", "conditions": "protein: recombinant; tags: tag cleaved by TEV (leaves G); label: 5' Cy5 on one strand; blunt; self-complementary strand, 2 copies"}, "Oct4 POU [5]": {"target": "T1, Oct4 POU", "experiment": "EMSA; 50 nM DNA, 25-800 nM protein; cooperative homodimer; EMSA buffer composition not given; 1 h at RT; gels in 1x TG, 200 V, 4 C; probes annealed in 20 mM Tris-HCl pH 8.0, 50 mM MgCl2, 50 mM KCl; protein stock 10 mM HEPES pH 7.0, 100 mM NaCl, 10% glycerol, 0.5 mM TCEP", "conditions": "protein: recombinant; Methods: TEV-cleaved tag; label: 5' Cy5 on forward strand; blunt"}, "Oct4 POUHD [6]": {"target": "T3, Oct4 POUHD", "experiment": "EMSA; 50 nM DNA; homodimer, minor effect of methylation; EMSA buffer composition not given; 1 h at RT; gels in 1x TG, 200 V, 4 C; probes annealed in 20 mM Tris-HCl pH 8.0, 50 mM MgCl2, 50 mM KCl; protein stock 10 mM HEPES pH 7.0, 100 mM NaCl, 10% glycerol, 0.5 mM TCEP", "conditions": "protein: recombinant; tags: tag cleaved by TEV (leaves G); chain copies: 2; label: 5' Cy5 on forward strand; blunt"}, "Brn2 POU [7]": {"target": "T4, Brn2 POU", "experiment": "EMSA; 1 nM DNA, 0.4-100 nM protein; nanomolar Kd, value only in figure; monomer; EMSA buffer composition not given; 1 h at RT; gels in 1x TG, 200 V, 4 C; probes annealed in 20 mM Tris-HCl pH 8.0, 50 mM MgCl2, 50 mM KCl; protein stock 10 mM HEPES pH 7.0, 100 mM NaCl, 10% glycerol, 0.5 mM TCEP", "conditions": "protein: recombinant; tags: tag cleaved by TEV (leaves G); label: 5' Cy5 on forward strand; blunt"}, "Oct4 POU [8]": {"target": "T1, Oct4 POU", "experiment": "EMSA; 1 nM DNA, 1-500 nM protein; nanomolar Kd, value only in figure; monomer; EMSA buffer composition not given; 1 h at RT; gels in 1x TG, 200 V, 4 C; probes annealed in 20 mM Tris-HCl pH 8.0, 50 mM MgCl2, 50 mM KCl; protein stock 10 mM HEPES pH 7.0, 100 mM NaCl, 10% glycerol, 0.5 mM TCEP", "conditions": "protein: recombinant; Methods: TEV-cleaved tag; label: 5' Cy5 on forward strand; blunt"}, "Oct4 POUHD [9]": {"target": "T3, Oct4 POUHD", "experiment": "EMSA; 50 nM DNA; high affinity, homodimer also forms; EMSA buffer composition not given; 1 h at RT; gels in 1x TG, 200 V, 4 C; probes annealed in 20 mM Tris-HCl pH 8.0, 50 mM MgCl2, 50 mM KCl; protein stock 10 mM HEPES pH 7.0, 100 mM NaCl, 10% glycerol, 0.5 mM TCEP", "conditions": "protein: recombinant; tags: tag cleaved by TEV (leaves G); chain copies: 2; label: 5' Cy5 on forward strand; blunt"}, "Brn2 POUS linker": {"target": "T5, Brn2 POUS linker (mouse, UniProt P31360)", "T5 sequence": "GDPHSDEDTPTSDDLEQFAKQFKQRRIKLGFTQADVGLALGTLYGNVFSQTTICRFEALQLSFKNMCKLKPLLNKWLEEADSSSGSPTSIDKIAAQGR", "experiment": "EMSA; 50 nM DNA; EMSA buffer composition not given; 1 h at RT; gels in 1x TG, 200 V, 4 C; probes annealed in 20 mM Tris-HCl pH 8.0, 50 mM MgCl2, 50 mM KCl; protein stock 10 mM HEPES pH 7.0, 100 mM NaCl, 10% glycerol, 0.5 mM TCEP", "conditions": "protein: recombinant; tags: tag cleaved by TEV (leaves G); label: 5' Cy5 on forward strand; blunt"}, "Brn2 POUHD [10]": {"target": "T2, Brn2 POUHD", "experiment": "EMSA; 50 nM DNA; high affinity, no dimer detectable; EMSA buffer composition not given; 1 h at RT; gels in 1x TG, 200 V, 4 C; probes annealed in 20 mM Tris-HCl pH 8.0, 50 mM MgCl2, 50 mM KCl; protein stock 10 mM HEPES pH 7.0, 100 mM NaCl, 10% glycerol, 0.5 mM TCEP", "conditions": "protein: recombinant; tags: tag cleaved by TEV (leaves G); label: 5' Cy5 on forward strand; blunt"}, "Oct4 POU [11]": {"target": "T1, Oct4 POU", "experiment": "EMSA; 50 nM DNA; homodimer, 5hmC no effect; EMSA buffer composition not given; 1 h at RT; gels in 1x TG, 200 V, 4 C; probes annealed in 20 mM Tris-HCl pH 8.0, 50 mM MgCl2, 50 mM KCl; protein stock 10 mM HEPES pH 7.0, 100 mM NaCl, 10% glycerol, 0.5 mM TCEP", "conditions": "protein: recombinant; Methods: TEV-cleaved tag; label: 5' Cy5 on forward strand; blunt"}, "Brn2 POU [12]": {"target": "T4, Brn2 POU", "experiment": "X-ray crystallography; 1.89 A; homodimer; 0.2 M MgCl2, pH 5.0; EMSA buffer composition not given; 1 h at RT; gels in 1x TG, 200 V, 4 C; probes annealed in 20 mM Tris-HCl pH 8.0, 50 mM MgCl2, 50 mM KCl; protein stock 10 mM HEPES pH 7.0, 100 mM NaCl, 10% glycerol, 0.5 mM TCEP", "conditions": "protein: recombinant; tags: tag cleaved by TEV (leaves G); blunt; self-complementary strand, 2 copies"}}, "data": [{"binder": "CpGpal fully methylated (dsDNA, 5mC at the central CpG (ATG5mCGCAT), both strands) DNA 1: GCCGCCTTATGCGCATAAGCCGCCGC DNA 2: GCGGCGGCTTATGCGCATAAGGCGGC", "values": [{"measurement": "binding result", "setting": "Oct4 POU [1]", "value": "binds"}, {"measurement": "binding result", "setting": "Brn2 POUHD [2]; label: 5' Cy5 or FAM on forward strand", "value": "binds"}, {"measurement": "binding result", "setting": "Oct4 POUHD [3]", "value": "binds"}]}, {"binder": "MORE (dsDNA) DNA 1: TCCTCATGCATATGCATGAGGA DNA 2: TCCTCATGCATATGCATGAGGA", "values": [{"measurement": "binding result", "setting": "Brn2 POU [4]", "value": "binds"}]}, {"binder": "CpGpal unmethylated (dsDNA) DNA 1: GCCGCCTTATGCGCATAAGCCGCCGC DNA 2: GCGGCGGCTTATGCGCATAAGGCGGC", "values": [{"measurement": "binding result", "setting": "Brn2 POUHD [2]; label: 5' Cy5 on forward strand", "value": "binds"}, {"measurement": "binding result", "setting": "Oct4 POU [5]", "value": "binds"}, {"measurement": "binding result", "setting": "Oct4 POUHD [6]", "value": "binds"}]}, {"binder": "Octamer (dsDNA) DNA 1: GGCGGCGGATGCAAATCGGCGGCGG DNA 2: CCGCCGCCGATTTGCATCCGCCGCC", "values": [{"measurement": "binding result", "setting": "Brn2 POU [7]", "value": "binds"}, {"measurement": "binding result", "setting": "Oct4 POU [8]", "value": "binds"}, {"measurement": "binding result", "setting": "Oct4 POUHD [9]", "value": "binds"}, {"measurement": "binding result", "setting": "Brn2 POUS linker", "value": "no binding"}, {"measurement": "binding result", "setting": "Brn2 POUHD [10]", "value": "binds"}]}, {"binder": "CpGpal 5hmC (dsDNA, 5hmC at the central CpG; strands carrying the mark not given) DNA 1: GCCGCCTTATGCGCATAAGCCGCCGC DNA 2: GCGGCGGCTTATGCGCATAAGGCGGC", "values": [{"measurement": "binding result", "setting": "Oct4 POU [11]", "value": "binds"}]}, {"binder": "MORE (crystal) (dsDNA) DNA 1: TCCTCATGCATATGCATGAGGA DNA 2: TCCTCATGCATATGCATGAGGA", "values": [{"measurement": "binding result", "setting": "Brn2 POU [12]", "value": "binds"}]}]}
